These results are taken from paper PMC3665681.

For the assay, the target named is A3B3 of Thermus thermophilus VoV1 (His-tagged A3B3, expressed without a rotor subunit) (T. thermophilus) (UniProt Q56403).
Chain of UniProt Q56403 (Q56403 whole entry C28S/S232A/T235S/C255A, chain 1 of 2): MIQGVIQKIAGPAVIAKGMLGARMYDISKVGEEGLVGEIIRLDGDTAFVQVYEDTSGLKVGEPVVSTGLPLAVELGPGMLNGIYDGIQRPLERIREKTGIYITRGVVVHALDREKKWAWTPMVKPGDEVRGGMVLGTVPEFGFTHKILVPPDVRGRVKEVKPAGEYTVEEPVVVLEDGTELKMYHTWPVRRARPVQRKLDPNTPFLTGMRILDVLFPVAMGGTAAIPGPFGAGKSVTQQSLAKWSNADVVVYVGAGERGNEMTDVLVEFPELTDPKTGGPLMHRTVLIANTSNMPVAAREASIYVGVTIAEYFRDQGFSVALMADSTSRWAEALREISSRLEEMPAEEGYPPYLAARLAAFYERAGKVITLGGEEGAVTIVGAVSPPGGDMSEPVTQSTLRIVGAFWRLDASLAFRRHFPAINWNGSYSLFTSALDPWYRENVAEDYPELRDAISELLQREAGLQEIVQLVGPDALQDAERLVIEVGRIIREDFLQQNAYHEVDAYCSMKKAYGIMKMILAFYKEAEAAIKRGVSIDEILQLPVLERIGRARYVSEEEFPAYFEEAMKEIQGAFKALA
Chain of UniProt Q56403 (Q56404 whole entry C264S, chain 2 of 2, further chain): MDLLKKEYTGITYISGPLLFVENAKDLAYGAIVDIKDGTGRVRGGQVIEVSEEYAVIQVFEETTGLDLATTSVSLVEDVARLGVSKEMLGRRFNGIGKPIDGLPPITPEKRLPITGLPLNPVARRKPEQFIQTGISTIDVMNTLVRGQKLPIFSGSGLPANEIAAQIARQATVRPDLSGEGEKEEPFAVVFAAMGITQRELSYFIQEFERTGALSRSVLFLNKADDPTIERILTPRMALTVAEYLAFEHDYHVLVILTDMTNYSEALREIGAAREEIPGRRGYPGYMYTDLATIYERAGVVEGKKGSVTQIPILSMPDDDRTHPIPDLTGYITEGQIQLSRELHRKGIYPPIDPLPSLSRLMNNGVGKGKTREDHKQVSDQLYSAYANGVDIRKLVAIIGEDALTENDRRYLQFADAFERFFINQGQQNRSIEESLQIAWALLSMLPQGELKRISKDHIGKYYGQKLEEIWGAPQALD

Regarding “FliJ of Salmonella enterica serovar Typhimurium (from UniProt P0A1K1 1-147) (natural protein)”, the ATPase turnover rate of A3B3J (A3B3 alone ∼4.0 s^−1); 25°C, 4 mM MgATP was 7 s⁻¹.
